Data set [1] concerns the target GST (UniProt P08515 P08515:1-218). The data set is described as follows: GST control.
Data set [2] concerns the target Tcf4 wild-type (UniProt Q9NQB0 Q9NQB0:1-619). Nature of the data set: positive control. The following applies: tags: GST fusion.
Data set [3] concerns the target T1, ZNFN3A1 (SMYD3) (Homo sapiens, UniProt Q9H7B4 SEQ:1-428).
T1 chain: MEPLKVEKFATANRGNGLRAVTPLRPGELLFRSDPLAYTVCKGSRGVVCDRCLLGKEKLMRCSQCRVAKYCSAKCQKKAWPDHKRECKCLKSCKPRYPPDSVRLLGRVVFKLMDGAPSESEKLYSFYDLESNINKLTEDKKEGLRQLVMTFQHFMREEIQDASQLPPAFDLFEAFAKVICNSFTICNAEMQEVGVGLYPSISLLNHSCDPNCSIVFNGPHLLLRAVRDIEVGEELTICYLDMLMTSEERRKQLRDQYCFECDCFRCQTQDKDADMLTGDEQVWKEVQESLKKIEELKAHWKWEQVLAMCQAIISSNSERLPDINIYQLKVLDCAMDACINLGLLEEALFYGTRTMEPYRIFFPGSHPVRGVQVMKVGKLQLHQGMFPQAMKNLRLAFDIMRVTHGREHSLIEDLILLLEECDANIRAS
The data set is described as follows: specificity control. The following applies: tags: GST fusion, E. coli.

For data set [4], the target named is T1, ZNFN3A1 (SMYD3). The data set is described as follows: in vitro binding assay; inhibited by cold competitor DNA. Particulars: tags: GST fusion, E. coli.

Sequence of GST (P08515 whole entry, the tested form may be a part, one chain of several): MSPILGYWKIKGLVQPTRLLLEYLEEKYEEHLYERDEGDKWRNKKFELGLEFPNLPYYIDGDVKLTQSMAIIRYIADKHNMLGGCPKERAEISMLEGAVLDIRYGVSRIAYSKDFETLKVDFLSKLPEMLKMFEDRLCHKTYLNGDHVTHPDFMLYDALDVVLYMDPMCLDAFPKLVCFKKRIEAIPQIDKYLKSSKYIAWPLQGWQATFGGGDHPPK
Sequence of Tcf4 wild-type (Q9NQB0 whole entry, the tested form may be a part, one chain of several): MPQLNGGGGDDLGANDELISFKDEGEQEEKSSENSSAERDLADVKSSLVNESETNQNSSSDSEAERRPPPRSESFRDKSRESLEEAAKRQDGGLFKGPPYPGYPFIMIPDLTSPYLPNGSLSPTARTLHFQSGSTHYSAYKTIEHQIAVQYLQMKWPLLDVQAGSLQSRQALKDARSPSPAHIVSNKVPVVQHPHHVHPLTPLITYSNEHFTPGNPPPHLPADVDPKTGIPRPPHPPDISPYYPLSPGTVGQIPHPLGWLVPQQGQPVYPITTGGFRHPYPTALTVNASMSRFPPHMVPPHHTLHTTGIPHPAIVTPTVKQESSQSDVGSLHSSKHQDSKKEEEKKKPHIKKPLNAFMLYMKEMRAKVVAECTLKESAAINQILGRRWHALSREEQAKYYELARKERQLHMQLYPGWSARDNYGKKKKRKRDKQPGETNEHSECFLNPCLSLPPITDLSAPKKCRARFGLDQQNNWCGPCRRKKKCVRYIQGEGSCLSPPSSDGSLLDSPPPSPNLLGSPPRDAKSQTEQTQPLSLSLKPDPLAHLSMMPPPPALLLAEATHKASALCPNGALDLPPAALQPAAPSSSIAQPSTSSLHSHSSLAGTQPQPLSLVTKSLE

B1: wtTBM (Tcf4-binding motif) (dsDNA)
DNA 1: CCCTTTGATCTTACC
DNA 2: GGTAAGATCAAAGGG
B1: the figures for the binding result in data set [1], in data set [2] and in data set [3] were “no binding”, “binds” and “no binding”, respectively.

B2: ZBE2 (Nkx2.8 ZNFN3A1-binding element) (dsDNA)
DNA 1: TTACGCCCTCCTGAAACTTGTCATCCTGAATCTTAGAGGGGCCC
DNA 2: GGGCCCCTCTAAGATTCAGGATGACAAGTTTCAGGAGGGCGTAA
Regarding B2, the binding result is “no binding” in data set [1] and “binds” in data set [4].

Source of the values: patent publication US8221993, “Methods of detecting methyl transferase activity and methods of screening for methyl transferase activity modulators” (Onco Therapy Science, Inc.).
